Data set [1] relates to HeLa Kyoto. The data set is described as follows: solubility change mitosis vs G1/S (difference of NP-40 vs SDS log2 ratios) (log2 ratio difference); higher = more soluble in mitosis.
The test system of data set [2] is HeLa Kyoto. The data set is described as follows: melting temperature (median over replicates), in situ; higher = more thermally stable.
Data set [3] concerns HeLa Kyoto. Briefly: thermal stability score vs G1/S (z-score of summed log2 fold changes over temperatures); higher = more thermally stable than in G1/S.
Data set [4] deals with HeLa Kyoto. The data set is described as follows: solubility in G1/S (NP-40 vs SDS abundance) (log2 ratio); higher = more soluble. To be noted: cell cycle stage: G1/S.
The mark [5] stands for this setting: cell cycle stage: early G1 (4.5 h after nocodazole release).
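For melting temperature (median over replicates), in situ in this document: HeLa Kyoto cells synchronized by double thymidine or nocodazole block, proteins quantified by TMT10plex mass spectrometry, three independent biological replicates.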
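For solubility change mitosis vs G1/S (difference of NP-40 vs SDS log2 ratios) in this document: synchronized HeLa Kyoto cells (double thymidine block for G1/S, nocodazole release for mitosis), protein amounts in NP-40 versus SDS lysates quantified by mass spectrometry, three biological replicates.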
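For solubility in G1/S (NP-40 vs SDS abundance) in this document: HeLa Kyoto cells arrested at G1/S by double thymidine block, proteins quantified by TMT10plex mass spectrometry in mild NP-40 versus SDS extracts, three biological replicates.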
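For thermal stability score vs G1/S (z-score of summed log2 fold changes over temperatures) in this document: synchronized HeLa Kyoto cells, proteins quantified by TMT10plex mass spectrometry, three biological replicates, mitosis taken 0.5 h after nocodazole release, G1/S directly after double thymidine block.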

Take “MALQLGRLSSGPCWLVARGGCGGPRAWSQCGGGGLRAWSQRSAAGRVCRPPGPAGTEQSRGLGHGSTSRGGPWVGTGLAAALAGLVGLATAAFGHVQRAEMLPKTSGTRATSLGRPEEEEDELAHRCSSFMAPPVTDLGELRRRPGDMKTKMELLILETQAQVCQALAQVDGGANFSVDRWERKEGGGGISCVLQDGCVFEKAGVSISVVHGNLSEEAAKQMRSRGKVLKTKDGKLPFCAMGVSSVIHPKNPHAPTIHFNYRYFEVEEADGNKQWWFGGGCDLTPTYLNQEDAVHFHRTLKEACDQHGPDLYPKFKKWCDDYFFIAHRGERRGIGGIFFDDLDSPSKEEVFRFVQSCARAVVPSYIPLVKKHCDDSFTPQEKLWQQLRRGRYVEFNLLYDRGTKFGLFTPGSRIESILMSLPLTARWEYMHSPSENSKEAEILEVLRHPRDWVR [CPOX]”: in the data set with HeLa Kyoto [1], the “solubility change mitosis (log2)” value is -0.135. Besides, the melting temperature in the data set on HeLa Kyoto [2] (cell cycle stage: G1/S) and in the data set with HeLa Kyoto [2] (cell cycle stage: mitosis) was 55 °C in each case. Moreover, the thermal stability score with HeLa Kyoto [3] (setting [5]) was -0.749; in the data set with HeLa Kyoto [3] (cell cycle stage: mitosis) it was -1.47. Besides, the “solubility in G1/S (log2)” value in the data set with HeLa Kyoto [4] came to 0.131.

Regarding “MALRVVRSVRALLCTLRAVPSPAAPCPPRPWQLGVGAVRTLRTGPALLSVRKFTEKHEWVTTENGIGTVGISNFAQEALGDVVYCSLPEVGTKLNKQDEFGALESVKAASELYSPLSGEVTEINEALAENPGLVNKSCYEDGWLIKMTLSNPSELDELMSEEAYEKYIKSIEE [GCSH]”, in the data set with HeLa Kyoto [1], the “solubility change mitosis (log2)” value is -0.0756. For the same sequence, the figures for the melting temperature in the data set with HeLa Kyoto [2] (cell cycle stage: G1/S) and with HeLa Kyoto [2] (cell cycle stage: mitosis) were 60 °C and 56.8 °C, respectively. The thermal stability score in the data set with HeLa Kyoto [3] (setting [5]) is -1.2; in the data set with HeLa Kyoto [3] (cell cycle stage: mitosis), -1.7. Also, the “solubility in G1/S (log2)” value with HeLa Kyoto [4] worked out at 0.297.

“MALTSFLPAPTQLSQDQLEAEEKARSQRSRQTSLVSSRREPPPYGYRKGWIPRLLEDFGDGGAFPEIHVAQYPLDMGRKKKMSNALAIQVDSEGKIKYDAIARQGQSKDKVIYSKYTDLVPKEVMNADDPDLQRPDEEAIKEITEKTRVALEKSVSQKVAAAMPVRAADKLAPAQYIRYTPSQQGVAFNSGAKQRVIRMVEMQKDPMEPPRFKINKKIPRGPPSPPAPVMHSPSRKMTVKEQQEWKIPPCISNWKNAKGYTIPLDKRLAADGRGLQTVHINENFAKLAEALYIADRKAREAVEMRAQVERKMAQKEKEKHEEKLREMAQKARERRAGIKTHVEKEDGEARERDEIRHDRRKERQHDRNLSRAAPDKRSKLQRNENRDISEVIALGVPNPRTSNEVQYDQRLFNQSKGMDSGFAGGEDEIYNVYDQAWRGGKDMAQSIYRPSKNLDKDMYGDDLEARIKTNRFVPDKEFSGSDRRQRGREGPVQFEEDPFGLDKFLEEAKQHGGSKRPSDSSRPKEHEHEGKKRRKE [SNW1]”: the “solubility change mitosis (log2)” value with HeLa Kyoto [1] was 0.482. The melting temperature with HeLa Kyoto [2] (cell cycle stage: G1/S) worked out at 52.3 °C; with HeLa Kyoto [2] (cell cycle stage: mitosis), 50.8 °C. Moreover, the thermal stability score was 0.202 with HeLa Kyoto [3] (setting [5]) and -3.38 in the data set with HeLa Kyoto [3] (cell cycle stage: mitosis). Besides, in the data set on HeLa Kyoto [4], the “solubility in G1/S (log2)” value was -0.328.

Take “MALVASVRVPARVLLRAGARLPGAALGRTERAAGGGDGARRFGSQRVLVEPDAGAGVAVMKFKNPPVNSLSLEFLTELVISLEKLENDKSFRGVILTSDRPGVFSAGLDLTEMCGRSPAHYAGYWKAVQELWLRLYQSNLVLVSAINGACPAGGCLVALTCDYRILADNPRYCIGLNETQLGIIAPFWLKDTLENTIGHRAAERALQLGLLFPPAEALQVGIVDQVVPEEQVQSTALSAIAQWMAIPDHARQLTKAMMRKATASRLVTQRDADVQNFVSFISKDSIQKSLQMYLERLKEEKG [ECI1]”: the “solubility change mitosis (log2)” value in the data set with HeLa Kyoto [1] was 0.043. Further, the melting temperature with HeLa Kyoto [2] (cell cycle stage: G1/S) was 56.8 °C; in the data set with HeLa Kyoto [2] (cell cycle stage: mitosis), 58.4 °C. Besides, the thermal stability score is -0.579 in the data set with HeLa Kyoto [3] (setting [5]) and -2.1 in the data set on HeLa Kyoto [3] (cell cycle stage: mitosis). In addition, in the data set on HeLa Kyoto [4], the “solubility in G1/S (log2)” value is 0.58.

On to “MALVHKLLRGTYFLRKFSKPTSALYPFLGIRFAEYSSSLQKPVASPGKASSQRKTEGDLQGDHQKEVALDITSSEEKPDVSFDKAIRDEAIYHFRLLKDEIVDHWRGPEGHPLHEVLLEQAKVVWQFRGKEDLDKWTVTSDKTIGGRSEVFLKMGKNNQSALLYGTLSSEAPQDGESTRSGYCAMISRIPRGAFERKMSYDWSQFNTLYLRVRGDGRPWMVNIKEDTDFFQRTNQMYSYFMFTRGGPYWQEVKIPFSKFFFSNRGRIRDVQHELPLDKISSIGFTLADKVDGPFFLEIDFIGVFTDPAHTEEFAYENSPELNPRLFK [NDUFAF1]”, for which the “solubility change mitosis (log2)” value in the data set with HeLa Kyoto [1] was -0.0281. The figures for the melting temperature with HeLa Kyoto [2] (cell cycle stage: G1/S) and in the data set with HeLa Kyoto [2] (cell cycle stage: mitosis) were 54.6 °C and 55.2 °C, respectively. The thermal stability score is 4.31 in the data set on HeLa Kyoto [3] (setting [5]) and 3.52 with HeLa Kyoto [3] (cell cycle stage: mitosis). The “solubility in G1/S (log2)” value with HeLa Kyoto [4] worked out at 0.043.

For “MAMAEGERTECAEPPRDEPPADGALKRAEELKTQANDYFKAKDYENAIKFYSQAIELNPSNAIYYGNRSLAYLRTECYGYALGDATRAIELDKKYIKGYYRRAASNMALGKFRAALRDYETVVKVKPHDKDAKMKYQECNKIVKQKAFERAIAGDEHKRSVVDSLDIESMTIEDEYSGPKLEDGKVTISFMKELMQWYKDQKKLHRKCAYQILVQVKEVLSKLSTLVETTLKETEKITVCGDTHGQFYDLLNIFELNGLPSETNPYIFNGDFVDRGSFSVEVILTLFGFKLLYPDHFHLLRGNHETDNMNQIYGFEGEVKAKYTAQMYELFSEVFEWLPLAQCINGKVLIMHGGLFSEDGVTLDDIRKIERNRQPPDSGPMCDLLWSDPQPQNGRSISKRGVSCQFGPDVTKAFLEENNLDYIIRSHEVKAEGYEVAHGGRCVTVFSAPNYCDQMGNKASYIHLQGSDLRPQFHQFTAVPHPNVKPMAYANTLLQLGMM [PPP5C]”, the “solubility change mitosis (log2)” value in the data set on HeLa Kyoto [1] was -0.207. Besides, the melting temperature in the data set on HeLa Kyoto [2] (cell cycle stage: G1/S) was 52.2 °C; with HeLa Kyoto [2] (cell cycle stage: mitosis) it was 51.6 °C. Further, the thermal stability score is -0.0521 in the data set on HeLa Kyoto [3] (setting [5]) and -1.42 in the data set on HeLa Kyoto [3] (cell cycle stage: mitosis). Moreover, the “solubility in G1/S (log2)” value in the data set on HeLa Kyoto [4] came to 0.0833.

With “MAMDSSLQARLFPGLAIKIQRSNGLIHSANVRTVNLEKSCVSVEWAEGGATKGKEIDFDDVAAINPELLQLLPLHPKDNLPLQENVTIQKQKRRSVNSKIPAPKESLRSRSTRMSTVSELRITAQENDMEVELPAAANSRKQFSVPPAPTRPSCPAVAEIPLRMVSEEMEEQVHSIRGSSSANPVNSVRRKSCLVKEVEKMKNKREEKKAQNSEMRMKRAQEYDSSFPNWEFARMIKEFRATLECHPLTMTDPIEEHRICVCVRKRPLNKQELAKKEIDVISIPSKCLLLVHEPKLKVDLTKYLENQAFCFDFAFDETASNEVVYRFTARPLVQTIFEGGKATCFAYGQTGSGKTHTMGGDLSGKAQNASKGIYAMASRDVFLLKNQPCYRKLGLEVYVTFFEIYNGKLFDLLNKKAKLRVLEDGKQQVQVVGLQEHLVNSADDVIKMIDMGSACRTSGQTFANSNSSRSHACFQIILRAKGRMHGKFSLVDLAGNERGADTSSADRQTRMEGAEINKSLLALKECIRALGQNKAHTPFRESKLTQVLRDSFIGENSRTCMIATISPGISSCEYTLNTLRYADRVKELSPHSGPSGEQLIQMETEEMEACSNGALIPGNLSKEEEELSSQMSSFNEAMTQIRELEEKAMEELKEIIQQGPDWLELSEMTEQPDYDLETFVNKAESALAQQAKHFSALRDVIKALRLAMQLEEQASRQISSKKRPQ [KIF2C]”, in the data set on HeLa Kyoto [1], the “solubility change mitosis (log2)” value was -0.0369. Also, the values for the melting temperature in the data set on HeLa Kyoto [2] (cell cycle stage: G1/S) and with HeLa Kyoto [2] (cell cycle stage: mitosis) were 48.6 °C and 49.5 °C, respectively. Besides, the thermal stability score in the data set on HeLa Kyoto [3] (setting [5]) amounted to 2.01; with HeLa Kyoto [3] (cell cycle stage: mitosis), 3.27. Also, the “solubility in G1/S (log2)” value in the data set with HeLa Kyoto [4] is -0.0225.

These data come from the supplement of paper PMC5998384.
